In the assay the target is T1, ILEU (Leukocyte elastase inhibitor) (human, UniProt P30740 1-379).
T1 sequence: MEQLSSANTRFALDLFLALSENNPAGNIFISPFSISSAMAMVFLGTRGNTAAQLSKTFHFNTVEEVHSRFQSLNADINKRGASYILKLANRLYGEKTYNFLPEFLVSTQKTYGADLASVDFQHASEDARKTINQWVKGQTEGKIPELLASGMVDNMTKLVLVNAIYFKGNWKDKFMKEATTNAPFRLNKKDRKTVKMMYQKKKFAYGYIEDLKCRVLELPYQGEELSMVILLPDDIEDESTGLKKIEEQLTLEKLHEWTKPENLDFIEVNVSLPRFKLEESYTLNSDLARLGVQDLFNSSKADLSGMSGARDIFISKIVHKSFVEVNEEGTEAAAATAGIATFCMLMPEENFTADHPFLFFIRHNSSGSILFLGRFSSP
Put plainly: 2D gel (IEF and SDS-PAGE) of tumor tissue lysate, spot identified by MALDI-TOF mass spectrometry. As for the experimental part:
For IEF, 3 ml of the suspension are mixed with 12 ml sample buffer (7 M urea, 2 M thiourea, 2% CHAPS, 0.4% IPG buffer pH 6-9, 0.5% DTT) and incubated for 1 h. The samples are concentrated in an Amicon® Ultra-15 device (Millipore GmbH, Schwalbach, Germany) and the protein concentration is determined using the Bio-Rad® protein assay (Cat. No. 500-0006; Bio-Rad Laboratories GmbH, Munchen, Germany) following the instructions of the supplier's manual. To a volume corresponding to 1.5 mg of protein sample buffer is added to a final volume of 350 μl. This solution is used to rehydrate IPG strips pH 6-9 (Amersham Biosciences, Freiburg, Germany) overnight. The IEF is performed using the following gradient protocol: 1.) 1 minute to 500 V; 2.) 2 h to 3,500 V; 3.) 22 h at constant 3,500 V giving rise to 82 kVh. After IEF, strips are stored at −80° C. or directly used for SDS-PAGE. […]
Each patient is analyzed separately by image analysis with the ProteomeWeaver® software (Definiens AG, Germany, München). […] For each patient, 4 gels from the tumor sample are compared with 4 gels each from adjacent normal and stripped mucosa tissue and analyzed for distinctive spots corresponding to differentially expressed proteins. […]

B1: PRN3 (proteinase 3) (enzyme)
chain: IVGGHEAQPHSRPYMASLQMRGNPGSHFCGGTLIHPSFVLTAAHCLRDIPQRLVNVVLGAHNVRTQEPTQQHFSVAQVFLNNYDAENKLNDVLLIQLSSPANLSASVATVQLPQQDQPVPHGTQCLAMGWGRVGAHDPPAQVLQELNVTVVTFFCRPHNICTFVPRRKAGICFGDSGGPLICDGIIQGIDSFVIWGCATRLFPDFFTRVALYVDWIRSTLR
notes: Endogenous protein in lysates of human colorectal tumor tissue, with an apparent MW of ~28 kDa on the blot; also called uncomplexed PRN3
In the case of B1, the binding result is recorded as “binds”.

The record behind these values is patent publication US20060177880A1 (ROCHE DIAGNOSTICS OPERATIONS, published 2006).
